Assay results: FireProtDB (doi:10.1016/s1570-9639(02)00548-4)
“And” between values parts separate entries of the source, which are not always exact repeats. Equal entries are not always repeated.

Settings: pH 6, cacodylate 0.03 M, reversible: yes; for denaturant m value / denaturant midpoint (higher = more stable) / unfolding free energy: 25 °C, GdnHCl, KCl 0.1 M
[1] = Equus caballus, Thermal, CD, KCl

Sequence of Cytochrome c wild type, P62894 (P62894 whole entry): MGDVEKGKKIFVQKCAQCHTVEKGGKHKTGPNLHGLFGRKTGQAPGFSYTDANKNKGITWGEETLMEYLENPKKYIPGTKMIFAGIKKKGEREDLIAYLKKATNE
Sequence of Cytochrome c wild type, P00004 (P00004 whole entry): as the sequence (P62894 whole entry) above, with S48T, G61K, G90T counted along it

Substance | denaturant m value (Equus caballus, Absorbance) | denaturant midpoint (higher = more stable) (Equus caballus, Absorbance) | unfolding free energy (Equus caballus, Absorbance) | denaturant m value (Equus caballus, CD) | denaturant midpoint (higher = more stable) (Equus caballus, CD) | unfolding free energy (Equus caballus, CD) | Tm [1] [°C] | unfolding enthalpy (van 't Hoff) [1] [kcal/mol] | denaturant m value (Bos taurus, Absorbance) [kcal/mol/M] | denaturant midpoint (higher = more stable) (Bos taurus, Absorbance) [M] | unfolding free energy (Bos taurus, Absorbance) [kcal/mol] | denaturant m value (Bos taurus, CD) | denaturant midpoint (higher = more stable) (Bos taurus, CD) | unfolding free energy (Bos taurus, CD)
Cytochrome c wild type, P00004 | 3.53 kcal/mol/M and 2.49 kcal/mol/M and 2.87 kcal/mol/M | 2.49 M and 2.35 M and 2.37 M | 8.83 kcal/mol and 6.01 kcal/mol and 6.81 kcal/mol | 2.69 kcal/mol/M and 3.48 kcal/mol/M and 3.39 kcal/mol/M | 2.5 M and 2.4 M and 2.45 M | 6.71 kcal/mol and 8.36 kcal/mol and 8.31 kcal/mol | 26.8 | 19.1 | – | – | – | – | – | –
Cytochrome c wild type, P62894 | – | – | – | – | – | – | – | – | 3.95 | 2.65 | 10.5 | 4.02 kcal/mol/M and 4.03 kcal/mol/M and 3.91 kcal/mol/M | 2.63 M and 2.61 M | 10.6 kcal/mol and 10.2 kcal/mol
